1 molecule from publication PMC8933513 (2022) can be followed below.

The term Kd denotes the equilibrium constant for the complex coming apart.

Holding throughout (assay): SPR
In assay [1] the target is hAPN ectodomain W429A mutant (human, UniProt P15144 62-963, W429A).
Assay [2] concerns the target hAPN ectodomain K379A mutant (human, UniProt P15144 62-963, K379A).
Assay [3] has as its target hAPN ectodomain E426A mutant (human, UniProt P15144 62-963, E426A).
Assay [4] addresses hAPN ectodomain Y316A mutant (human, UniProt P15144 62-963, Y316A).
Assay [5] addresses T1, human aminopeptidase N (hAPN) ectodomain, residues 62-963, wild type (human, UniProt P15144 62-963).
T1 chain: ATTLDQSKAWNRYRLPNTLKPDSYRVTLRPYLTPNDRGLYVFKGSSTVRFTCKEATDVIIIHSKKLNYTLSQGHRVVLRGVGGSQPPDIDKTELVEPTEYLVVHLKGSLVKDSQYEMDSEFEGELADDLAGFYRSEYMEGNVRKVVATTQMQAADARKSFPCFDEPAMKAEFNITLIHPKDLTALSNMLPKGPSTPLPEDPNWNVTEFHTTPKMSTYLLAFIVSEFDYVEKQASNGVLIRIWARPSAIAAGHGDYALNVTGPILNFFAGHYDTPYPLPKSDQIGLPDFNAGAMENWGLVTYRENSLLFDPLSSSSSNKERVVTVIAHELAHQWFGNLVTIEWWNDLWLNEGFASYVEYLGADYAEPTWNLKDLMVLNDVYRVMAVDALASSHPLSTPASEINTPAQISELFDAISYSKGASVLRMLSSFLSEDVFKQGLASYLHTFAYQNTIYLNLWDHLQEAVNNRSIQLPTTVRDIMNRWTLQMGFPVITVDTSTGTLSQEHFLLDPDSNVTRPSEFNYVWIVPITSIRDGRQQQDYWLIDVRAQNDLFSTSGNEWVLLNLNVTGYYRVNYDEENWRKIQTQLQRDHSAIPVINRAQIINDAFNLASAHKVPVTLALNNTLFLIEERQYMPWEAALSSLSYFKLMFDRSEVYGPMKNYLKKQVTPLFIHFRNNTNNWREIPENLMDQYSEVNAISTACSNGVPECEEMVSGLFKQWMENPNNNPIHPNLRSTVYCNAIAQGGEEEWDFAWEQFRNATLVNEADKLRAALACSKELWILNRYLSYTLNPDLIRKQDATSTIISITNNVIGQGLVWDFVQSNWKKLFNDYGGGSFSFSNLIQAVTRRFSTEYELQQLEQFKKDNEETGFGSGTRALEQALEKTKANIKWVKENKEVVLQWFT

In assay [6] the target is hAPN ectodomain E742A mutant (human, UniProt P15144 62-963, E742A).
Assay [7] concerns the target T2, pAPN ectodomain E421A mutant (pig, UniProt P15145 58-961, E421A).
T2 sequence: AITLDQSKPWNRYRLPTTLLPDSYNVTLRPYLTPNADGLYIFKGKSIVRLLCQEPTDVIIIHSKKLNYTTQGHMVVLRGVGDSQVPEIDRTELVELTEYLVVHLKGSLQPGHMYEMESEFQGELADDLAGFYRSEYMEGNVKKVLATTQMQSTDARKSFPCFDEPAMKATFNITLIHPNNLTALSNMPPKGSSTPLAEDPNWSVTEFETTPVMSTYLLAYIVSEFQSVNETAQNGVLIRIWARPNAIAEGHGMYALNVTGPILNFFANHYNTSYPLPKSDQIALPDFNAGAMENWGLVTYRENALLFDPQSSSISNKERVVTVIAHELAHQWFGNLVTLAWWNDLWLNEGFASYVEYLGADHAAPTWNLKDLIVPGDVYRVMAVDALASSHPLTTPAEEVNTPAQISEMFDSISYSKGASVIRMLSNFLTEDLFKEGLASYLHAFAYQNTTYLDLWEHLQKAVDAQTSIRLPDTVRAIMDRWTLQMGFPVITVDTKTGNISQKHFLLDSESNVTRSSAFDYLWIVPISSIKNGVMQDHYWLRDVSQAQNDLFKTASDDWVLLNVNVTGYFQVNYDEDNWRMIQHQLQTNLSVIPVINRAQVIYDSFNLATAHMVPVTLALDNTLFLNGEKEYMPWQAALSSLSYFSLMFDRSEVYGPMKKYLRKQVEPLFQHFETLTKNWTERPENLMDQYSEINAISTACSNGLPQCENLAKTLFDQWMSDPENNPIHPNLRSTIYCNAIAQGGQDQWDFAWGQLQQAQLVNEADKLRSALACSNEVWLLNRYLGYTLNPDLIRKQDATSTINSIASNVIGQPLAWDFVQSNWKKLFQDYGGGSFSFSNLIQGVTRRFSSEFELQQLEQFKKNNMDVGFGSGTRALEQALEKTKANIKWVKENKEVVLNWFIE

Assay [8] has as its target hAPN ectodomain E745A mutant (human, UniProt P15144 62-963, E745A).
In assay [9] the target is hAPN ectodomain H789A mutant (human, UniProt P15144 62-963, H789A).

Chain of hAPN ectodomain Y316A mutant (P15144 62-963 Y316A): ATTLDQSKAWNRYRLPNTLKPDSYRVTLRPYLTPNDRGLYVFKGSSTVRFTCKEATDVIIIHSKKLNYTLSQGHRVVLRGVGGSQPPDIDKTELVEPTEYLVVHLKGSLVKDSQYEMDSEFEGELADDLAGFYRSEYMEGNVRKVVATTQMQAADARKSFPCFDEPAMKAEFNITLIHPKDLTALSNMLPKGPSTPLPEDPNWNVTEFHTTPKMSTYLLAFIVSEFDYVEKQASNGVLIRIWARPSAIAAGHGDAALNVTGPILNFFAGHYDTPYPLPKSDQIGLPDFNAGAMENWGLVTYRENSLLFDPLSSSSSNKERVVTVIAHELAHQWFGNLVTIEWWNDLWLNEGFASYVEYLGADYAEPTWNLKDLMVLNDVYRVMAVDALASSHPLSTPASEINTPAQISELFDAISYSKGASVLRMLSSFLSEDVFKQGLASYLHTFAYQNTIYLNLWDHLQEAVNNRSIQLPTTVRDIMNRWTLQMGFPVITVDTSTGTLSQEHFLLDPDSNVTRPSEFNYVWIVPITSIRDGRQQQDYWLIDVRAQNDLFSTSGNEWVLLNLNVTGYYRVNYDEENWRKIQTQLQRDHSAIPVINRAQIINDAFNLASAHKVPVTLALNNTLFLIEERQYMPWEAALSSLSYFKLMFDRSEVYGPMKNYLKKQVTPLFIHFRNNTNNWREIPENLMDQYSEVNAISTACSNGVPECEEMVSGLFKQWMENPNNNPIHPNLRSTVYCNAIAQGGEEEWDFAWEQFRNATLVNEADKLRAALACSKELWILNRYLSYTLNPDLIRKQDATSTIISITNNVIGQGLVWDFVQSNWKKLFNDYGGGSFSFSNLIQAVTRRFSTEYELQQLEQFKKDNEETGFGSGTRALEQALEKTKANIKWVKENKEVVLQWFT
Chain of hAPN ectodomain E745A mutant (P15144 62-963 E745A): as the sequence (P15144 62-963 Y316A) above, with A255Y, E684A counted along it
Chain of hAPN ectodomain W429A mutant (P15144 62-963 W429A): as the sequence (P15144 62-963 Y316A) above, with A255Y, W368A counted along it
Chain of hAPN ectodomain K379A mutant (P15144 62-963 K379A): as the sequence (P15144 62-963 Y316A) above, with A255Y, K318A counted along it

B1: PDCoV spike (S) protein receptor binding domain (RBD), residues 300-419, wild type (domain or fragment)
chain: PKLPELEVVQLNISAHMDFGEARLDSVTINGNTSYCVTKPYFRLETNFMCTGCTMNLRTDTCSFDLSAVNNGMSFSQFCLSTESGACEMKIIVTYVWNYLLRQRLYVTAVEGQTHTGTTS
As to B1, the Kd in [1] was found to be 127 µM; in [2], 444 µM; in [3], 334 µM; in assay [4], 37.1 µM; in assay [5] it was 3.71 µM; in assay [6] it was 13.7 µM. The figures for the Kd in assay [7], in assay [8] and in assay [9] were 125 µM, 3.06 µM and 6.25 µM, respectively.
